The results in this text go back to the DeepSol protein solubility set.

The nature of the series: soluble on expression in E. coli; label from the status in PepcDB or PDB records.
With “MGSDKIHHHHHHMPNIPLRVNSLATEHPNNAQNSDKMPTFDAIFSHLSAIASHNSHQIIALLPSSDANWPAALIAERLTQAGSKQHLQKQHLHLHLFAQHQASWLKALAESETLASPAKEQIKAICDARVSGSHRLKLVNARLIIDIHLGDPLTQLKDLVSPSLASQAIQGWLANTQATDEALIWQMARLSQDNAEFLLLENNDVNLDKTSNNANTNLLTQLIIKAGFTCYRLNLSLKDDQLVTLAEKPSLASLEIAMVERRALRRQQLDKFAFNPLTQGREGETAIIGGGVASANLALSLAERGKKVSFFCMDKAPGEQASGNKQGAIYPLLTPEHGSLSHYFLLGYLFSRQRIKQLLESGHEIPHDFCGVLQTGHDERSHKRLTKIINAQPWAESIARPVDALQATALAGVTIEHQGIYYPLAGWVSPQ”, the “soluble on expression in E. coli” value is given as “not soluble”.

For “MGSDKIHHHHHHNEKQDWVGTWTASPQPTWGTDFALPVKMVPKLENQTIRQTVRTSVGGRRFRIVLSNEYSNVPIQIGEIRAARAGEDSKITAGTDRAVTFGGQAKATVPAGAPLVSDPVELPLDALSRLSISVYLPQPTPIATFHWDGKQTAYIGDGNQTASETIAAAQTTDARTLVSEILVDAPANNGAVIAIGDSITDGNGATLDADNRWPDVLAERLVSKQVSVLNAGISGARLLDDAMGVKASARFNRDVLAQPGVKAVILLIGINDISWPGTPFAPEKSLPSLAALTTGYLQLAAQAHAHNLIIVGGTLTPFEGALSGTPLDAYYTPEKEALRQKVNNWIRTSGAFDAVVDFDLLLRDPLHPTRLLPEFDSGDHLHPGDKGNRAMAEAIDLGQLIKN”, the “soluble on expression in E. coli” value is listed as “not soluble”.

Take “MEIARKVMEEFLEIWNEALAKRSLPGKFVNKDLNFGEFGLGDNYTPQHTAVRNYALVMAHMIATVQAVSG”: the “soluble on expression in E. coli” value is “not soluble”.

With “MSLDSPPIRVFVVEDQTKILKNQLRLFENHPEMDIIGTALSGEAALEEVPKLMPDVLLLDLGLPRMSGIDVTREVKARFPKIEILIFTIFDEEDKVLEAVKAGASGYLLKGAPVDKIIEAIKEVRAGGTVIQPNLARRLLRHFRVEPDASPLISPPAAPEPSASDLPQEPLLKPLSDREREILQLIAKGVSNSEAARLLDLSKATIRTHLEHIYRKLEVTNRVEAVTEGIRKGLISEGHHHHHH”, the “soluble on expression in E. coli” value was “soluble”.

In the case of “MVTHSKFPAAGMSRPLDTSLRLKTFSSKSEYQLVVNAVRKLQESGFYWSAVTGGEANLLLSAEPAGTFLIRDSSDQRHFFTLSVKTQSGTKNLRIQCEGGSFSLQSDPRSTQPVPRFDCVLKLVHHYMPPPGTPSFSLPPTEPSSEVPEQPPAQALPGSTPKRAYYIYSGGEKIPLVLSRPLSSNVATLQHLCRKTVNGHLDSYEKVTQLPGPIREFLDQYDAPL”, the “soluble on expression in E. coli” value is “soluble”.

Take “MPKETPSKAAADALSDLEIKDSKSNLNKELETLREENRVKSDMLKEKLSKDAENHKAYLKSHQVHRHKLKEMEKEEPLLNEDKERTVLFPIKYHEIWQAYKRAEASFWTAEEIDLSKDIHDWNNRMNENERFFISRVLAFFAASDGIVNENLVENFSTEVQIPEAKSFYGFQIMIENIHSETYSLLIDTYIKDPKESEFLFNAIHTIPEIGEKAEWALRWIQDADALFGERLVAFASIEGVFFSGSFASIFWLKKRGMMPGLTFSNELICRDEGLHTDFACLLFAHLKNKPDPAIVEKIVTEAVEIEQRYFLDALPVALLGMNADLMNQYVEFVADRLLVAFGNKKYYKVENPFDFMENISLAGKTNFFEKRVSDYQKAGVMSKSTKQEAGAFTFNEDF”: the “soluble on expression in E. coli” value is recorded as “soluble”.

With “MSLEQKWKWWEEERYPEGIKWKFLEHKGPVFAPPYEPLPENVKFYYDGKVMKLSPKAEEVATFFAKMLDHEYTTKEIFRKNFFKDWRKEMTNEEKNIITNLSKCDFTQMSQYFKAQTEARKQMSKEEKLKIKEENEKLLKEYGEGHHHHHH”, the “soluble on expression in E. coli” value is given as “soluble”.

For “MHHHHHHSHMHHHHHHSHMSKYAELLAIIEELGKEIRPTYAGSKSAMERLKRGIIHARGLVREALAETERNARS”, the “soluble on expression in E. coli” value is reported as “soluble”.

For “KSITITTPYFVPSEILLHTLRTTAHRGVEVKLILPKKNDSLMVNWASKSFFETLLKAGVQIHEFNGGLLHTKSVVIDESHCIIGTVNLDMRSFWLNFEVSLIVDDPEFTKQLSWVLDGYLEQSTQVCFDTWRHRSWGNRFTERFFSMFSPLL”, the “soluble on expression in E. coli” value was “not soluble”.

As to “MFRIASSSYSQFIASANPSIQTRCISIARIDQKIKRGNSDRRVIHAKKFTKQTDSPASVAGDGFILSKTFLQNAIAHQPPSGLTPVGRDGGRDEKKLILHPKEIVEHLNKYVVGQEEAKKYLAVAVYQHYRRVENNLRVTEQWMLSEAVAAAKERKKMRKQNPEEEEYYPEYVQKSQRQILKDLEKRQDMILDKSNMILLGASGTGKTFMTQKLAEVLDVPIVICDCTTLTQAGYVGDDVDTVIQKLLAEAMGDIEKCQRGIVFLDEFDKIYTSSDPLHTSGNRDVSGKGVQQALLKLVEGSLVKVRDPLAPNSKVTIDTSNILFIASGAFSNIEHIVARRMDKRLVTSLLFHFPQ”, the “soluble on expression in E. coli” value is recorded as “not soluble”.

“MPKLHMFYLGGNAGRSNIEVHDIQFAVCDNYREAVPALKAAWFGDADKIHIDGWQIVEWADGYDIAVSETPKTKMPSEHAPRLYFANVGGYRAGQLAEAHAFGLFAAATPAEAKQKALQTLLTDSYVQQHKDNLKDVDNLLALDRIGNFHIRLTPNPHGKPAEIGFQGYLPI”: the “soluble on expression in E. coli” value was “not soluble”.

As for “MSLKIFGTDGVRGKAGVKLTPMFVMRLGIAAGLYFKKHSQTNKILIGKDTRKSGYMVENALVSALTSIGYNVIQIGPMPTPAIAFLTEDMRCDAGIMISASHNPFEDNGIKFFNSYGYKLKEEEEKAIEEIFHDEELLHSSYKVGESVGSAKRIDDVIGRYIAHLKHSFPKHLNLQSLRIVLDTANGAAYKVAPVVFSELGADVLVINDEPNGCNINDQCGALHPNQLSQEVKKYRADLGFAFDGDADRLVVVDNLGNIVHGDKLLGVLGVYQKSKNALSSQAVVATNMSNLALKEYLKSQDLELKHCAIGDKFVSECMQLNKANFGGEQSGHIIFSDYAKTGDGLVCALQVSALVLESKQVSSVALNPFELYPQSLVNLNVQKKPPLESLKGYSALLKELDKLEIRHLIRYSGTENKLRILLEAKDEKLLESKMQELKEFFEGHLCEGHHHHHH”, the “soluble on expression in E. coli” value is “soluble”.

For the sequence “GMSESNRQRATGLVQAYYEAFNRGDWDAMLAFLAEDVAHDLNQGPREIGRAAFASFLQRMNDSYREQLRDIVVTANDEGTRVGAEYVVHGVYHTTDEGLPDANGQTYVLPGGAFFDVRDGQITRVTNYYNLQEWIAQVSR”, the “soluble on expression in E. coli” value is reported as “soluble”.

For “MKETDLAFFRSFKNRILKEINVMQLCRVVTVKGARADVQPMALKSDGGKRALILNALITKHCQSDISQGAVVVVVFCDRDIDNYRSSADYSLSSDRMHSQNDAVIMGVIA”, the “soluble on expression in E. coli” value was “not soluble”.

On to “MERGQSLALQSNRNRPYMIRIIQPILRSERRRKLGREYFILHRKLSDCFSSIKWALPAKGDNSHGCSYPVMEHRSLIMRRLKDVDMYMQENKRTNLRLAISKLHGMIIRPGETFSVWRHVGRPTARKGYLEGLVLSQGKIGKGVGGGLCQLGNLLFWMFAHTPLSIVERHRHSFDVFPDINRSIPFGAGATLSYNYIDLRVSNNTPHTYRLELWLDDTHLNGRISSDTEQRDRYRIEETDHRIEHQSWGGYTRHNKLVRIVTRADGSEYTEPFVENHAIMMYNPLLSPPQNGASTSFQR”, for which the “soluble on expression in E. coli” value is recorded as “not soluble”.

With “MRKTKIVCTIGPASESIEKLEQLIEAGMNVARLNFSHGSHEEHGARIKNIREASKKTGKTVGILLDTKGPEIRTHDFVDGQAELVTGAEVVLSTEQVLGTAEKFSVSYAGLYDDVDPGSRILIDDGLIELEVIEKADGNIRTKVLNSGTVKNKKGVNVPNVSIKLPGITEKDVKDIIFGIEQKVDFIAASFVRKAADVLEIRELLEEHNAQYIQIVPKIENQEGIDNIDSILEVSDGLMVARGDMGVEIPPEEVPLVQKRLIKKCNVLGKPVITATQMLDSMQRNPRPTRAEASDVANAIFDGTDAIMLSGETAAGQYPVEAVTMMANIAVRVEKSLQYEDMFKKRIKEFTPTITDAISQSVAHTALALDVAAIVAPTESGYTAKMISKYRPKSPIVAVTSDEQVGRRLALVWGVQAFMAEKRAASTDEMLDTAIQTGMDAGLIGLGDTVVITAGVPVAETGTTNLMKIHVVGEEVAKGQGIGRKAAKGKVVVAKTAAEAVANVNEGDILVTTSTDKDMIPAIEKAAALVVEEGGLTSHAAVVGVSIGIPVIVGVNGVTATLKNGQEVTVDAARGIVYNGHAEVL”, the “soluble on expression in E. coli” value was “soluble”.
